From PMC3814348 (PLoS Pathogens, 2013)

Target: Hrs, purified recombinant ( (human, mouse or zebrafish …, UniProt O14964 1-777))
Experiment: pull-down
Details: both partners purified

B1: EsxGMt EsxHMt-6XHis heterodimer (complex)
chain 1: MSLLDAHIPQLVASQSAFAAKAGLMRHTIGQAEQAAMSAQAFHQGESSAAFQAAHARFVAAAAKVNTLLDVAQANLGEAAGTYVAADAAAASTYTGF
chain 2: MSQIMYNYPAMLGHAGDMAGYAGTLQSLGAEIAVEQAALQSAWQGDTGITYQAWQAQWNQAMEDLVRAYHAMSSTHEANTMAMMARDTAEAAKWGG
Binder B1 has a Kd of 5.4 µM.
